Data from article PMC6378684 (Journal of Molecular Biology, 2019).
One block for each molecule: values may come before it.

What was measured:
[1] = target: T1, Cut7MD (fission yeast kinesin-5 Cut7 motor domain) (Schizosaccharomyces pombe, UniProt P24339); assay: cryo-EM structure, […] Å; assay type: binding; details: nucleotide pocket, with Mg; bound to S. pombe microtubules
T1 construct: monomeric motor domain, residues 67-432, lacks N-terminal extension; His6 tag removed by TEV; expressed in E. coli BL21*(DE3)
T1 sequence (P24339 67-432): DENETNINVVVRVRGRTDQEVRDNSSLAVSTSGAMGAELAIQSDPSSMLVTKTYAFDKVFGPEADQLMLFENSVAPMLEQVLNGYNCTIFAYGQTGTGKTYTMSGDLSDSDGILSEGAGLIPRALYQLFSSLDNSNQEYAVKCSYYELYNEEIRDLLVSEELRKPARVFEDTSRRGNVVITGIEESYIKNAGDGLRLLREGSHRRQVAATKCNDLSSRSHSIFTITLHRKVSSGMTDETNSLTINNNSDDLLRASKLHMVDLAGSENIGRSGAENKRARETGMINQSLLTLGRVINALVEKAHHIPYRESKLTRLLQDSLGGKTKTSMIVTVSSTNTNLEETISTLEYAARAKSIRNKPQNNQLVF

[2] = target: T1, Cut7MD (fission yeast kinesin-5 Cut7 motor domain); assay: microtubule-stimulated ATPase, pyruvate kinase / lactate dehydrogenase coupled; assay type: biochemical; details: 5 mM ATP; epothilone-stabilised S. pombe microtubules; 1 mM MgCl2, pH 8.0, 32 °C
[3] = target: T1, Cut7MD (fission yeast kinesin-5 Cut7 motor domain); assay: microtubule-stimulated steady-state ATPase, enzyme-coupled; assay type: biochemical; details: 3.8 μM motor; 100 nM mammalian (bovine) microtubules
[4] = target: S. pombe tubulin microtubules (Sp_tub MTs), epothilone-stabilised (S. pombe) (UniProt P04688)
[5] = target: Mammalian brain tubulin microtubules (Mam_tub MTs), paclitaxel-stabilised (bovine), Q6B856
Sequence of Mammalian brain tubulin microtubules (Mam_tub MTs), paclitaxel-stabilised (bovine), Q6B856 (Q6B856 whole entry, looked up): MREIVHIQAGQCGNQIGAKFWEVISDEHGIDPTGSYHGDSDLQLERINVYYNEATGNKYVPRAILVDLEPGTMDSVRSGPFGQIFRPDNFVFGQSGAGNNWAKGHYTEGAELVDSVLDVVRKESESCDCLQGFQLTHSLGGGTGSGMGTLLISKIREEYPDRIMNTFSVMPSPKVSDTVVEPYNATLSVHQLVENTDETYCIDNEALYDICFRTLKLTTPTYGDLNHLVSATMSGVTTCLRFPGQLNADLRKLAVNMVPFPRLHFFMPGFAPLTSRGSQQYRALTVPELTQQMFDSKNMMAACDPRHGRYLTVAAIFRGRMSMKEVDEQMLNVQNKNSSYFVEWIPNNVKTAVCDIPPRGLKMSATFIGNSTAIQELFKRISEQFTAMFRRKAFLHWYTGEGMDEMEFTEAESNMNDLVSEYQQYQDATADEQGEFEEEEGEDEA

Sequence of S. pombe tubulin microtubules (Sp_tub MTs), epothilone-stabilised (S. pombe) (P04688 whole entry, chain 1 of 2): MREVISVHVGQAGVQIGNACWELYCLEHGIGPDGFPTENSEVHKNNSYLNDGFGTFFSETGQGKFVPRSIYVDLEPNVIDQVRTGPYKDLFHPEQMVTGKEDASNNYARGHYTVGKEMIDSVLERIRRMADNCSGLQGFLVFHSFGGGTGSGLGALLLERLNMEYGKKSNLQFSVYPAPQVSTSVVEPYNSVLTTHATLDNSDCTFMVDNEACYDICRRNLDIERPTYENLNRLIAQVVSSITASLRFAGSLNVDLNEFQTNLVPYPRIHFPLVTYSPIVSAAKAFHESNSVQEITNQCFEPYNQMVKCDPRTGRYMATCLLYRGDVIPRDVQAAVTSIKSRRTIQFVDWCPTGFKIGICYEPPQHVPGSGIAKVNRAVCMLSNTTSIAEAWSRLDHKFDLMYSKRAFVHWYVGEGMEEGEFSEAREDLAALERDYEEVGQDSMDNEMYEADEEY
Sequence of S. pombe tubulin microtubules (Sp_tub MTs), epothilone-stabilised (S. pombe) (P05219 whole entry, chain 2 of 2, further chain): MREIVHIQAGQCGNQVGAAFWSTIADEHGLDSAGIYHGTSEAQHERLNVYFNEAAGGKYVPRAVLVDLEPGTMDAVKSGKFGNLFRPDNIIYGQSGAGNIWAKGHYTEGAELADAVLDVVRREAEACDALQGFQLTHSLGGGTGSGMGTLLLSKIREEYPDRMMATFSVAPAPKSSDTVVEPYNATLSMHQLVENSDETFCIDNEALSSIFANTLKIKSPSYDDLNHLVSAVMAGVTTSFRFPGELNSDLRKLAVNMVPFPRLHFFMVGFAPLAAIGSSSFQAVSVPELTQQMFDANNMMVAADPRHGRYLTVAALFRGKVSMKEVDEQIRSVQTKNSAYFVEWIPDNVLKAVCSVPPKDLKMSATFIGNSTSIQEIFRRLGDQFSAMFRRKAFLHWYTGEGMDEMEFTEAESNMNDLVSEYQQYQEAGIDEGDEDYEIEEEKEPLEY

Molecule: Nc1ncnc2c1ncn2[C@@H]1O[C@H](COP(=O)(O)OP(=O)(O)NP(=O)(O)O)[C@@H](O)[C@H]1O [AMPPNP, adenosine 5′-(β,γ-imido)triphosphate]
cryo-EM structure, 4.5 Å [1]: strong density in the nucleotide binding pocket corresponding to bound Mg-AMPPNP

Molecule: Nc1ncnc2c1ncn2[C@@H]1O[C@H](COP(=O)(O)OP(=O)(O)OP(=O)(O)O)[C@@H](O)[C@H]1O [ATP]
microtubule-stimulated ATPase, pyruvate kinase / lactate dehydrogenase coupled [2]: we measured the steady-state ATPase activity of Cut7MD on Sp_tub MTs and Mam_tub MTs

Molecule: N[C@@H](CSC(c1ccccc1)(c1ccccc1)c1ccccc1)C(=O)O [STLC, (+)-S-trityl-L-cysteine]
% of their uninhibited rates at 2 μM and 20 μM [3]: Cut7MD is not detectably inhibited by STLC

K0.5MT of the MT-stimulated steady-state ATPase of Cut7MD (Hanes–Woolf plot) [4]: 13.4 nM
K0.5MT of the MT-stimulated steady-state ATPase of Cut7MD (Michaelis–Menten fit) [4]: 13.9 nM
Vmax of the MT-stimulated steady-state ATPase of Cut7MD (Hanes–Woolf plot) [4]: 1.17 ATP/s
Vmax of the MT-stimulated steady-state ATPase of Cut7MD (Michaelis–Menten fit) [4]: 1.14 ATP/s
Molecule: Cut7 motor domain (Cut7MD), residues 67–432 of the fission yeast kinesin-5 Cut7 (from UniProt P24339 67-432) (domain or fragment)

K0.5MT of the MT-stimulated steady-state ATPase of Cut7MD (Hanes–Woolf plot) [5]: 14.3 nM
K0.5MT of the MT-stimulated steady-state ATPase of Cut7MD (Michaelis–Menten fit) [5]: 19.9 nM
Vmax of the MT-stimulated steady-state ATPase of Cut7MD (Hanes–Woolf plot) [5]: 1.19 ATP/s
Vmax of the MT-stimulated steady-state ATPase of Cut7MD (Michaelis–Menten fit) [5]: 1.25 ATP/s
B1: Cut7 motor domain (Cut7MD), residues 67–432 of the fission yeast kinesin-5 Cut7, P24339 67-432 (domain or fragment)
chain: T1 sequence (P24339 67-432)
